Experimental data reported in patent US9512459B2 (priority 2011, dated 2016).
Positions count from the first letter of the chain named. Names may count otherwise.

B1: Aspergillus niger glucose dehydrogenase (FAD-GDH) Ang-n2 variant E195K/Q196E/G73A, SEQ ID NO: 2 (Aspergillus niger CBS 513.88; E195K/G73A/Q196E) (protein)
chain: YDFVIVGGGTSGLVVANRLSELSDVTVAVIEAGESALNNFNVSNVMAYSTAFGTEVDWAYQTENQTYAGGLQQTIRAGKALGGTSTINGMSYTRAEDVQIDNWEVLGNDGWNWKNLFQYYKKSEGFQVPTKDQIAHGASYNASYHGLNGPLKVGWPNSMTNSSVFPVLKETFEKLGVQYNPDSEGGKMVGFTVHPDTLDREMNVREDAARAYYWPYEARSNLKIISNTRANKVIWANTTQGEAVAVGIEVTNAYGTETIYADKEVILSAGALRSPAILELSGIGNPDVLNKHNIPVKVNITTVGENLQDQTNNALSWEGVDTLTGLATFSVLPSVNQLYGDNVTALASYVKSQLASYAKTVASASNGAVKEANLVEAFERQYDLIFNSQVPYTEVVFAPSGNSFAVEYWPLLPFSRGSVHIQSANASDYPAINPNYFMFDQDAEAQVTVAQYIRKALGTAPLNSLVGEEVSPGLDVLPASASSATWTKWVKENYRTNYHPVGTTSMLPREKGGVVSPELKVYGTKNVRVVDASVLPFQLCGHLTSTLYAVAERASDLIKESY
notes: E. coli BL21(DE3), crude extract, small-scale culture
B2: Aspergillus niger glucose dehydrogenase (FAD-GDH) Ang-n1 variant E195K/Q196E, SEQ ID NO: 2 (Aspergillus niger CBS 513.88; E195K/Q196E) (protein)
chain: MDSPAHYDFVIVGGGTSGLVVANRLSELSDVTVAVIEAGESALNNFNVSNVMGYSTAFGTEVDWAYQTENQTYAGGLQQTIRAGKALGGTSTINGMSYTRAEDVQIDNWEVLGNDGWNWKNLFQYYKKSEGFQVPTKDQIAHGASYNASYHGLNGPLKVGWPNSMTNSSVFPVLKETFEKLGVQYNPDSEGGKMVGFTVHPDTLDREMNVREDAARAYYWPYEARSNLKIISNTRANKVIWANTTQGEAVAVGIEVTNAYGTETIYADKEVILSAGALRSPAILELSGIGNPDVLNKHNIPVKVNITTVGENLQDQTNNALSWEGVDTLTGLATFSVLPSVNQLYGDNVTALASYVKSQLASYAKTVASASNGAVKEANLVEAFERQYDLIFNSQVPYTEVVFAPSGNSFAVEYWPLLPFSRGSVHIQSANASDYPAINPNYFMFDQDAEAQVTVAQYIRKALGTAPLNSLVGEEVSPGLDVLPASASSATWTKWVKENYRTNYHPVGTTSMLPREKGGVVSPELKVYGTKNVRVVDASVLPFQLCGHLTSTLYAVAERASDLIKESY
notes: pET30c, E. coli BL21(DE3), crude extract
B3: Aspergillus niger glucose dehydrogenase (FAD-GDH) Ang-n2 variant T522S, SEQ ID NO: 2 (Aspergillus niger CBS 513.88; T522S) (protein)
chain: B1 chain with A47G, K169E, E170Q, T496S
notes: as for B2
B4: Aspergillus niger glucose dehydrogenase (FAD-GDH) Ang-n2 variant E195K/Q196D, SEQ ID NO: 2 (Aspergillus niger CBS 513.88; E195K/Q196D) (protein)
chain: B1 chain with A47G, E170D
notes: as for B2
B5: Aspergillus niger glucose dehydrogenase (FAD-GDH) Ang-n2 variant N368K, SEQ ID NO: 2 (Aspergillus niger CBS 513.88; N368K) (protein)
chain: B1 chain with A47G, K169E, E170Q, N342K
notes: as for B2
B6: Aspergillus niger glucose dehydrogenase (FAD-GDH) Ang-n2 variant N368K/T522S, SEQ ID NO: 2 (Aspergillus niger CBS 513.88; N368K/T522S) (protein)
chain: B1 chain with A47G, K169E, E170Q, N342K, T496S
notes: as for B2
B7: Aspergillus niger glucose dehydrogenase (FAD-GDH) Ang-n2 variant E195K/Q196R, SEQ ID NO: 2 (Aspergillus niger CBS 513.88; E195K/Q196R) (protein)
chain: B1 chain with A47G, E170R
notes: as for B2
B8: Aspergillus niger glucose dehydrogenase (FAD-GDH) Ang-n3 variant E195K/Q196E, SEQ ID NO: 2 (Aspergillus niger CBS 513.88; E195K/Q196E) (protein)
chain: B1 chain with A47G
notes: pET30c, E. coli BL21(DE3), dialysed crude enzyme
B9: Aspergillus niger glucose dehydrogenase (FAD-GDH) Ang-n3, SEQ ID NO: 2 (26 N-terminal residues deleted, Met-Asn-Thr-Thr-Thr- added) (Aspergillus niger CBS … (protein)
chain: B1 chain with A47G, K169E, E170Q
notes: otherwise wild type; pET30c, E. coli BL21(DE3), dialysed crude enzyme
B10: Aspergillus niger glucose dehydrogenase (FAD-GDH) Ang-n2 variant E195K/Q196E/N368K/T522S, SEQ ID NO: 2 (Aspergillus niger CBS 513.88; E195K/N368K/Q196E/T522S) (protein)
chain: B1 chain with A47G, N342K, T496S
notes: as for B2
B11: Aspergillus niger glucose dehydrogenase (FAD-GDH) Ang-n1, wild type, SEQ ID NO: 2 (20 N-terminal residues deleted, Ala21 substituted by Met) (Aspergillus niger … (protein)
chain: B2 chain with K175E, E176Q

What follows are proteins tested on OC[C@H]1OC(O)[C@H](O)[C@@H](O)[C@@H]1O (assay: cells, lysate or membranes named). Conditions: other: 3 ml culture, crude enzyme, glucose 1-40 mM, pH 6.5, DCIP/PMS.
Type: biochemical, Aspergillus niger

**Q.** Which results are given for B1?
**A.** Km: 5.5 mM; Vmax: 5.0 U/mg protein

Same assay, conditions: other: 60 ml culture, crude enzyme, glucose 1-40 mM, pH 6.5, DCIP/PMS, 20.0 °C

**Q.** Which results are given for B2?
**A.** Km: 2.8 mM; Vmax: 2.5 µmol/min/mg

**Q.** With B3 as the protein, how does the Km read?
**A.** The Km was 2.5 mM.

**Q.** And the Vmax?
**A.** The Vmax was 3.4 µmol/min/mg.

**Q.** For B4, which Km is on record?
**A.** Its Km is 2.9 mM.

**Q.** And the Vmax?
**A.** Its Vmax is 5.1 µmol/min/mg.

**Q.** How did the Km turn out when B5 was run?
**A.** The Km was 4.6 mM.

**Q.** What about the Vmax of the same protein?
**A.** Its Vmax is 0.7 µmol/min/mg.

**Q.** Which results are given for B6?
**A.** Km: 3.4 mM; Vmax: 5.3 µmol/min/mg

**Q.** How did the Km turn out when B7 was run?
**A.** The Km was 2.5 mM.

**Q.** And the Vmax?
**A.** Its Vmax is 4.3 µmol/min/mg.

**Q.** With B8 as the protein, how does the Km read?
**A.** Its Km is 2.2 mM.

**Q.** What about the Vmax of the same protein?
**A.** Its Vmax is 4.5 µmol/min/mg.

**Q.** B9 was tested. Which Km did it give?
**A.** The Km was 3.7 mM.

**Q.** And the Vmax?
**A.** Its Vmax is 0.7 µmol/min/mg.

**Q.** What does the source list for B10?
**A.** Km: 3.2 mM; Vmax: 6.1 µmol/min/mg

The proteins below were run on OC[C@H]1OC(O)[C@H](O)[C@@H](O)[C@@H]1O (assay: cells, lysate or membranes named). Conditions: other: 60 ml culture, crude enzyme, glucose 1-40 mM, pH 6.5, DCIP/PMS, 20.0 °C.

**Q.** B11 was tested. Which Km did it give?
**A.** The Km was 3.6 mM.
